{
  "source": "patent US12686712B2",
  "about": "“Antibody, related use, pharmaceutical composition including method for diagnosing fungal infections, fungal infection diagnosis kit and method for treating fungal infections” (priority 2020, dated 2026)",
  "system": "Candida albicans",
  "assay": "Immunofluorescence of AcM anti-chitooligomer against intact cells",
  "format": "binding",
  "conditions": "AcM 25 μg/mL, 1 h at 37° C.; anti-IgM Alexa 568; calcofluor",
  "method": "Fungal cells (10^6 cells)) were fastened (cacodylate paraformolaldehyde buffer 4%; 30 min) and blocked later (PBS/BSA 1%; 1 hour). Then, they were incubated with AcM anti-chitooligomer(25 μg/mL; 1 h at 37° C.) After washing with PBS, cells were incubated with mouse anti-IgM antibody conjugated at Alexa 568 (SIGMA; 1:1000). After PBS washing, cells were incubated with 25 μM of white calcofluor (Invitrogen) and washed again. Cellular suspensions were assembled in glass blades and assessed under microscope Olympus AX70, coupled to camera system (QImaging Retiga 1300) and assessed in QCapture suite V2.46 software.\nFrom reliable and ELISA and Dot Blot trials, biological activity validation tests. Thus, AcMs were used through immunofluorescence (IF), using the pathogen Candida albicans as template. AcMs were efficient at fungal cellular wall labeling, showing the same profile whenever standard marker is used (lectin), data not provided.",
  "data": [
    {"molecule": "HC6/DD11: murine IgM monoclonal antibody against chitooligomers (chitotriose); VH SEQ ID NO: 15, VL SEQ ID NO: 16 (antibody, listed as Mus musculus, V domains shown) VH: STGQVKLEESGGGLVQPGGSRKLSCAASGFTFSDYGMAWVRQAPGKGPEWVAFISNLAYSIYYADTVTGRFTISRENAKNTLYLEMSSLRSEDTAMYYCARDYYGSSYWYFDVWGAGTTVTAPC VL: ATNSCISRGEVTITCSASSSVSYMHWFQQKPGTSPKLWIYSTSNLASGVPARFSGSGSGTSYSLTISRMEAEDAATYYCQQRSSYPLTFGAGTKLELKRADAAPTVSLET", "values": [
      {"measurement": "fungal cellular wall labeling by immunofluorescence", "value": "characteristic polar label"}
    ]}
  ]
}
